Reference: patent US7963935B2, “Microprojection array having a beneficial agent containing coating” (Alza Corporation, priority 2001, dated 2011)
Where a name gives a salt, the structure may show the parent alone.

Experiments:
[1] = Dry film/coating on titanium foil: inspection and redissolution/rehydration in water; type: physicochemical
Experimental: In order to test the ability of aqueous albumin solutions to form solid coatings on titanium microprojections, a coated microprojection array was prepared in the following manner. […] To aliquots of these solutions, fluorescein, a marker added for subsequent visualization of the dried coating, was added at a final concentration of 1 millimolar. A 1-microliter drop of this solution was spread on titanium foil having an area of about one centimeter square. The solution was allowed to dry at room temperature for about 1 hour.
A coated microprojection array was prepared in the following manner. […] To this suspension, fluorescein, a marker added for subsequent visualization, was added at a final concentration of 1 millimolar. A 1 microliter drop of this suspension was spread on titanium foil having an area of 1 square centimeter and allowed to dry at room temperature for about an hour.
To 50 microliters of this solution, 50 microliters of a 40 percent by weight aqueous solution of lidocaine HCl was added. A control solution containing no albumin was also prepared. 1-microliter drops of these solutions were spread on titanium foil having an area of approximately 1 square centimeter. The solutions were allowed to air dry at room temperature for about 1 hour.

[2] = hGH delivery studies with tip-coated microprojection arrays; plasma hGH by ELISA, compared with subcutaneous injection; type: in vivo, hairless guinea pigs; conditions: for Cmax / tmax: plasma hGH
Experimental: An aqueous solution containing 20 wt % human growth hormone (20 wt % hGH), and 20 wt % sucrose was prepared. […] The tips of the microprojections were coated with this solution by passing the arrays over a rotating drum carrying the hGH/sucrose solution using the method and apparatus disclosed in U.S. Patent Application Ser. No. 60/276,762 filed Mar. 16, 2001. Four successive coatings were performed on each microprojection array at 4° C. The amount of protein coated on the arrays was evaluated by total protein assay. An average of 9.5±0.9 μg of hGH was coated per array. […] On the microprojection itself, the coating was found unevenly distributed. Most of the solid coating appeared to be located in caps centered on the geometric center of the faces of the coated area of the microprojections. […] The maximum measured thickness of the coating was about 4 μm while the average calculated thickness over the entire coated area was only about 1.7 μm. Overall, the coating presented good aerodynamics and good adhesion, consistent with minimum effect on penetration of the microprojections into the skin and minimal removal of the drug from the microprojection during penetration.
Some of the hGH tip-coated arrays were subsequently used for drug delivery studies in hairless guinea pigs. The application of the coated microprojection arrays was done using an impact applicator (total energy=0.4 Joules, delivered in less than 10 milliseconds) using a spring-driven impact applicator or the type disclosed in U.S. Patent Application Ser. No. 60/240,307 filed Oct. 13, 2000. The arrays were left on the skin after application for 5 seconds, 5 minutes, or 1 hour, in groups of three animals. Blood was collected at time intervals for plasma hGH determination by ELISA. […] On average, 5 μg of hGH was delivered in each animal, which accounts for approximately 50% of the coated dose. […] Finally, the 5 minute wearing time group had the smallest CV (30%), which is even smaller than that observed following subcutaneous injection (50%).

## Cyclosporin A [CSA]
[1]; CSA suspension in 20 wt% human albumin, dried on titanium foil, particles 1 to 25 micrometers
  release of drug particles from dry albumin coating following rehydration: freed readily following rehydration

## CCN(CC)CC(=O)Nc1c(C)cccc1C [lidocaine HCl]
[1]; control solution without albumin
  nature of dried film (hygroscopicity, suitability for storage): very hygroscopic film unsuitable for subsequent storage

## human growth hormone [hGH]
[2]; arrays left on skin 5 seconds, 5 minutes or 1 hour
  hGH delivery versus wearing time: the same at all wearing times
[2]; hGH/sucrose tip-coated microprojection array, impact applicator, hairless guinea pigs, all wearing times
  amount of hGH delivered in each animal (average): 5 µg
[2]; microprojection administration
  Cmax: 13 ng/mL
  tmax: 30 min
[2]; microprojection array, hairless guinea pigs
  hGH delivered as fraction of the coated dose: approximately 50%
[2]; microprojection array, assuming bioavailability similar to subcutaneous (65%)
  fraction of the coated dose delivered into the skin: about 80%
[2]; subcutaneous administration
  bioavailability: 65%
[2]; subcutaneous injection
  Cmax: 5 ng/mL
  tmax: 60 min
